One block for each substance: values may come before it.
Assays:
Assay in all cases: cell-based or functional assay
Cyterm-mCherry = target: Cyterm-mCherry
Cyterm-TagRFP-T = target: Cyterm-TagRFP-T
Cyterm-mScarlet-I = target: Cyterm-mScarlet-I
CytERm-mScarlet-I3 = target: CytERm-mScarlet-I3
Cyterm fusion: mEGFP = target: Cyterm fusion: mEGFP
Cyterm-mScarlet = target: Cyterm-mScarlet
Cyterm fusion: dTomato = target: Cyterm fusion: dTomato
CytERm-mScarlet3 = target: CytERm-mScarlet3

Substance: Cyterm-mCherry
% cells with OSER (Cyterm-mCherry): 18%

Substance: Cyterm-TagRFP-T
% cells with OSER (Cyterm-TagRFP-T): 64%

Substance: Cyterm-mScarlet-I
% cells with OSER (Cyterm-mScarlet-I): 8%

Substance: Cyterm fusion: mEGFP
% cells with OSER (Cyterm fusion: mEGFP): 11%

Substance: Cyterm-mScarlet
% cells with OSER (Cyterm-mScarlet): 8%

Next, values leading:

% cells with OSER (CytERm-mScarlet-I3): 5%
Substance: CytERm-mScarlet-I3

% cells with OSER (Cyterm fusion: dTomato): 82%
Substance: Cyterm fusion: dTomato

% cells with OSER (CytERm-mScarlet3): 7%
Substance: CytERm-mScarlet3
